# Test results as given in publication PMC12753876, “The CRY1-HsF predicted interaction interface serves as a molecular platform for bioengineering or selecting modulating mutants” (Frontiers in Plant Science, 2025).
# T1: HsFA6a^WT in pGBKT7 (BD) (Arabidopsis thaliana, UniProt Q1PDN3 1-282)
# T1 construct: source: yeast two-hybrid fusion (yeast Y187)
# T1 sequence (looked up): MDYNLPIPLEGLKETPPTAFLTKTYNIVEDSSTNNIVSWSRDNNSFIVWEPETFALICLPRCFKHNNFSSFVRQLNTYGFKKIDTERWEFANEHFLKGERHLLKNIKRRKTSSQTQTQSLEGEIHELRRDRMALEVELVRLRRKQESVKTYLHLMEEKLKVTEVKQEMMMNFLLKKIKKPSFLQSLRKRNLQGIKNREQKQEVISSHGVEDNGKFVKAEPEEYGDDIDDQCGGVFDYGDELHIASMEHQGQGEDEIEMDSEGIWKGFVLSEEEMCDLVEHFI
# B1: CRY1^(PHR WT) in pGADT7 (AD) (domain or fragment, Arabidopsis thaliana, UniProt Q43125 1-508, looked up)
# chain: MSGSVSGCGSGGCSIVWFRRDLRVEDNPALAAAVRAGPVIALFVWAPEEEGHYHPGRVSRWWLKNSLAQLDSSLRSLGTCLITKRSTDSVASLLDVVKSTGASQIFFNHLYDPLSLVRDHRAKDVLTAQGIAVRSFNADLLYEPWEVTDELGRPFSMFAAFWERCLSMPYDPESPLLPPKKIISGDVSKCVADPLVFEDDSEKGSNALLARAWSPGWSNGDKALTTFINGPLLEYSKNRRKADSATTSFLSPHLHFGEVSVRKVFHLVRIKQVAWANEGNEAGEESVNLFLKSIGLREYSRYISFNHPYSHERPLLGHLKFFPWAVDENYFKAWRQGRTGYPLVDAGMRELWATGWLHDRIRVVVSSFFVKVLQLPWRWGMKYFWDTLLDADLESDALGWQYITGTLPDSREFDRIDNPQFEGYKFDPNGEYVRRWLPELSRLPTDWIHHPWNAPESVLQAAGIELGSNYPLPIVGLDEAKARLHEALSQMWQLEAASRAAIENGSEE
# notes: cryptochrome 1 (AtCRY1), Arabidopsis thaliana, PHR domain, residues 1-508; also called CRY1 PHR domain; source: yeast two-hybrid fusion (yeast Y187)
# B2: CRY1^(PHR K332A) in pGADT7 (AD) (domain or fragment, Arabidopsis thaliana, UniProt Q43125 1-508, looked up)
# chain: MSGSVSGCGSGGCSIVWFRRDLRVEDNPALAAAVRAGPVIALFVWAPEEEGHYHPGRVSRWWLKNSLAQLDSSLRSLGTCLITKRSTDSVASLLDVVKSTGASQIFFNHLYDPLSLVRDHRAKDVLTAQGIAVRSFNADLLYEPWEVTDELGRPFSMFAAFWERCLSMPYDPESPLLPPKKIISGDVSKCVADPLVFEDDSEKGSNALLARAWSPGWSNGDKALTTFINGPLLEYSKNRRKADSATTSFLSPHLHFGEVSVRKVFHLVRIKQVAWANEGNEAGEESVNLFLKSIGLREYSRYISFNHPYSHERPLLGHLKFFPWAVDENYFAAWRQGRTGYPLVDAGMRELWATGWLHDRIRVVVSSFFVKVLQLPWRWGMKYFWDTLLDADLESDALGWQYITGTLPDSREFDRIDNPQFEGYKFDPNGEYVRRWLPELSRLPTDWIHHPWNAPESVLQAAGIELGSNYPLPIVGLDEAKARLHEALSQMWQLEAASRAAIENGSEE
# notes: cryptochrome 1 (AtCRY1), Arabidopsis thaliana, PHR domain, residues 1-508; source: yeast two-hybrid fusion (yeast Y187)
# B3: CRY1^(PHR R211A) in pGADT7 (AD) (domain or fragment, Arabidopsis thaliana, UniProt Q43125 1-508, looked up)
# chain: MSGSVSGCGSGGCSIVWFRRDLRVEDNPALAAAVRAGPVIALFVWAPEEEGHYHPGRVSRWWLKNSLAQLDSSLRSLGTCLITKRSTDSVASLLDVVKSTGASQIFFNHLYDPLSLVRDHRAKDVLTAQGIAVRSFNADLLYEPWEVTDELGRPFSMFAAFWERCLSMPYDPESPLLPPKKIISGDVSKCVADPLVFEDDSEKGSNALLAAAWSPGWSNGDKALTTFINGPLLEYSKNRRKADSATTSFLSPHLHFGEVSVRKVFHLVRIKQVAWANEGNEAGEESVNLFLKSIGLREYSRYISFNHPYSHERPLLGHLKFFPWAVDENYFKAWRQGRTGYPLVDAGMRELWATGWLHDRIRVVVSSFFVKVLQLPWRWGMKYFWDTLLDADLESDALGWQYITGTLPDSREFDRIDNPQFEGYKFDPNGEYVRRWLPELSRLPTDWIHHPWNAPESVLQAAGIELGSNYPLPIVGLDEAKARLHEALSQMWQLEAASRAAIENGSEE
# notes: cryptochrome 1 (AtCRY1), Arabidopsis thaliana, PHR domain, residues 1-508; also called CRY1^R211A; source: yeast two-hybrid fusion (yeast Y187)
# B4: CRY1^(PHR R335A) in pGADT7 (AD) (domain or fragment, Arabidopsis thaliana, UniProt Q43125 1-508, looked up)
# chain: MSGSVSGCGSGGCSIVWFRRDLRVEDNPALAAAVRAGPVIALFVWAPEEEGHYHPGRVSRWWLKNSLAQLDSSLRSLGTCLITKRSTDSVASLLDVVKSTGASQIFFNHLYDPLSLVRDHRAKDVLTAQGIAVRSFNADLLYEPWEVTDELGRPFSMFAAFWERCLSMPYDPESPLLPPKKIISGDVSKCVADPLVFEDDSEKGSNALLARAWSPGWSNGDKALTTFINGPLLEYSKNRRKADSATTSFLSPHLHFGEVSVRKVFHLVRIKQVAWANEGNEAGEESVNLFLKSIGLREYSRYISFNHPYSHERPLLGHLKFFPWAVDENYFKAWAQGRTGYPLVDAGMRELWATGWLHDRIRVVVSSFFVKVLQLPWRWGMKYFWDTLLDADLESDALGWQYITGTLPDSREFDRIDNPQFEGYKFDPNGEYVRRWLPELSRLPTDWIHHPWNAPESVLQAAGIELGSNYPLPIVGLDEAKARLHEALSQMWQLEAASRAAIENGSEE
# notes: as for B2
# B5: CRY1^(PHR R435A) in pGADT7 (AD) (domain or fragment, Arabidopsis thaliana, UniProt Q43125 1-508, looked up)
# chain: MSGSVSGCGSGGCSIVWFRRDLRVEDNPALAAAVRAGPVIALFVWAPEEEGHYHPGRVSRWWLKNSLAQLDSSLRSLGTCLITKRSTDSVASLLDVVKSTGASQIFFNHLYDPLSLVRDHRAKDVLTAQGIAVRSFNADLLYEPWEVTDELGRPFSMFAAFWERCLSMPYDPESPLLPPKKIISGDVSKCVADPLVFEDDSEKGSNALLARAWSPGWSNGDKALTTFINGPLLEYSKNRRKADSATTSFLSPHLHFGEVSVRKVFHLVRIKQVAWANEGNEAGEESVNLFLKSIGLREYSRYISFNHPYSHERPLLGHLKFFPWAVDENYFKAWRQGRTGYPLVDAGMRELWATGWLHDRIRVVVSSFFVKVLQLPWRWGMKYFWDTLLDADLESDALGWQYITGTLPDSREFDRIDNPQFEGYKFDPNGEYVRAWLPELSRLPTDWIHHPWNAPESVLQAAGIELGSNYPLPIVGLDEAKARLHEALSQMWQLEAASRAAIENGSEE
# notes: cryptochrome 1 (AtCRY1), Arabidopsis thaliana, PHR domain, residues 1-508; also called CRY1^R435A; source: yeast two-hybrid fusion (yeast Y187)
# B6: CRY1^(PHR W352A) in pGADT7 (AD) (domain or fragment, Arabidopsis thaliana, UniProt Q43125 1-508, looked up)
# chain: MSGSVSGCGSGGCSIVWFRRDLRVEDNPALAAAVRAGPVIALFVWAPEEEGHYHPGRVSRWWLKNSLAQLDSSLRSLGTCLITKRSTDSVASLLDVVKSTGASQIFFNHLYDPLSLVRDHRAKDVLTAQGIAVRSFNADLLYEPWEVTDELGRPFSMFAAFWERCLSMPYDPESPLLPPKKIISGDVSKCVADPLVFEDDSEKGSNALLARAWSPGWSNGDKALTTFINGPLLEYSKNRRKADSATTSFLSPHLHFGEVSVRKVFHLVRIKQVAWANEGNEAGEESVNLFLKSIGLREYSRYISFNHPYSHERPLLGHLKFFPWAVDENYFKAWRQGRTGYPLVDAGMRELAATGWLHDRIRVVVSSFFVKVLQLPWRWGMKYFWDTLLDADLESDALGWQYITGTLPDSREFDRIDNPQFEGYKFDPNGEYVRRWLPELSRLPTDWIHHPWNAPESVLQAAGIELGSNYPLPIVGLDEAKARLHEALSQMWQLEAASRAAIENGSEE
# notes: cryptochrome 1 (AtCRY1), Arabidopsis thaliana, PHR domain, residues 1-508; also called CRY1^W352A; source: yeast two-hybrid fusion (yeast Y187)
# Key:
# Experiment in all cases: two-hybrid; CRY1 as prey in pGADT7 (AD), HsF as bait in pGBKT7 (BD), co-transformed into yeast Y187; liquid beta-galactosidase assay with CPRG, Miller units; not detected (ND) if OD578 <0.01 after 3 h of color development
# Conditions in all cases: partners not purified
# [1] = target: T2, HsFA3^K177A in pGBKT7 (BD) (Arabidopsis thaliana, UniProt Q8GYY1 1-412, K177A)
# T2 construct: source: yeast two-hybrid fusion (yeast Y187)
# [2] = target: T3, HsFA3^E178A in pGBKT7 (BD) (Arabidopsis thaliana, UniProt Q8GYY1 1-412, E178A)
# T3 construct: source: yeast two-hybrid fusion (yeast Y187)
# HsFC1^WT in pGBKT7 (BD) = target: T4, HsFC1^WT in pGBKT7 (BD) (Arabidopsis thaliana, UniProt Q9LV52 1-330)
# T4 construct: source: yeast two-hybrid fusion (yeast Y187)
# HsFA6b^WT in pGBKT7 (BD) = target: T5, HsFA6b^WT in pGBKT7 (BD) (Arabidopsis thaliana, UniProt Q9LUH8 1-406)
# T5 construct: source: yeast two-hybrid fusion (yeast Y187)
# [3] = target: T6, HsFA3^E188A in pGBKT7 (BD) (Arabidopsis thaliana, UniProt Q8GYY1 1-412, E188A)
# T6 construct: Not in the list of plasmids of the methods; source: yeast two-hybrid fusion (yeast Y187)
# [4] = target: T7, HsFA3^E173A in pGBKT7 (BD) (Arabidopsis thaliana, UniProt Q8GYY1 1-412, E173A)
# T7 construct: source: yeast two-hybrid fusion (yeast Y187)
# [5] = target: T8, HsFA3^K174A in pGBKT7 (BD) (Arabidopsis thaliana, UniProt Q8GYY1 1-412, K174A)
# T8 construct: source: yeast two-hybrid fusion (yeast Y187)
# HsFA3^WT in pGBKT7 (BD) = target: T9, HsFA3^WT in pGBKT7 (BD) (Arabidopsis thaliana, UniProt Q8GYY1 1-412)
# T9 construct: also called AtHsFA3; source: yeast two-hybrid fusion (yeast Y187)
# HsFA1d^WT in pGBKT7 (BD) = target: T10, HsFA1d^WT in pGBKT7 (BD) (Arabidopsis thaliana, UniProt Q9LQM7 1-485)
# T10 construct: source: yeast two-hybrid fusion (yeast Y187)
# HsFA6a^WT in pGBKT7 (BD) = target: T1, HsFA6a^WT in pGBKT7 (BD)
# [6] = target: T11, HsFC1^R129E in pGBKT7 (BD) (Arabidopsis thaliana, UniProt Q9LV52 1-330, R129E)
# T11 construct: source: yeast two-hybrid fusion (yeast Y187)
# HsFA7a in pGBKT7 (BD) = target: T12, HsFA7a in pGBKT7 (BD) (Arabidopsis thaliana, UniProt Q9SV12 1-272)
# T12 construct: also called HsFA7^WT; source: yeast two-hybrid fusion (yeast Y187)
# T12 sequence (Q9SV12 whole entry, the tested form may be a part): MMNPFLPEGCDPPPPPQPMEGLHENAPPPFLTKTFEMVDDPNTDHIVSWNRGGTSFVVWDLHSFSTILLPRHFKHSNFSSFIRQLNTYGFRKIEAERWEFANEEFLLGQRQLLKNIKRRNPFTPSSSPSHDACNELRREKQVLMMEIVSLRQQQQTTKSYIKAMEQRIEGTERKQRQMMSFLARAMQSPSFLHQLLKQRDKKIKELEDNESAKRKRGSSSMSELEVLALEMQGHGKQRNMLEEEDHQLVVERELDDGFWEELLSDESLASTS
# T9 sequence (Q8GYY1 whole entry, the tested form may be a part): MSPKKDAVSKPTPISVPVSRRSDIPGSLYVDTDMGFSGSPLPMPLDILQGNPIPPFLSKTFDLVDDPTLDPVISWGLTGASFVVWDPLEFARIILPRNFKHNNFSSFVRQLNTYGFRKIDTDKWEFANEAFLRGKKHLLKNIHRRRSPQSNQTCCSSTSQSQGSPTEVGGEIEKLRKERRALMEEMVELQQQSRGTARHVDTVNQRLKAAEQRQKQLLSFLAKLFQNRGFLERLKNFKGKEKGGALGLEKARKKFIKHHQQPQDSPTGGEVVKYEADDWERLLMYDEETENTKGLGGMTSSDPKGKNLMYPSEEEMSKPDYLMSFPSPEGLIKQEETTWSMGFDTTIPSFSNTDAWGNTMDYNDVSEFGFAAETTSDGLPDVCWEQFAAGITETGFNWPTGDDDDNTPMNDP
# T7 sequence (Q8GYY1 whole entry E173A, the tested form may be a part): as the sequence (Q8GYY1 whole entry, the tested form may be a part) above, with E173A counted along it
# T8 sequence (Q8GYY1 whole entry K174A, the tested form may be a part): as the sequence (Q8GYY1 whole entry, the tested form may be a part) above, with K174A counted along it
# T4 sequence (Q9LV52 whole entry, the tested form may be a part): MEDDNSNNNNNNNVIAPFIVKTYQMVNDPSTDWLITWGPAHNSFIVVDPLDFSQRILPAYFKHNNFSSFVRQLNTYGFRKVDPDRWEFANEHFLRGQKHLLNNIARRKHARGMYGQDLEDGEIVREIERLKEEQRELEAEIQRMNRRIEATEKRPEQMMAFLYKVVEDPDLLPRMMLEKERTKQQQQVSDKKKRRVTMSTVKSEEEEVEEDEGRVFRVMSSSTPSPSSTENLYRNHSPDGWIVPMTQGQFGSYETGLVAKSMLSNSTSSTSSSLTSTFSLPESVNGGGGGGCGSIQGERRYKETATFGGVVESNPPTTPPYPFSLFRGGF
# T6 sequence (Q8GYY1 whole entry E188A, the tested form may be a part): as the sequence (Q8GYY1 whole entry, the tested form may be a part) above, with E188A counted along it
# T11 sequence (Q9LV52 whole entry R129E, the tested form may be a part): as the sequence (Q9LV52 whole entry, the tested form may be a part) above, with R129E counted along it
# T10 sequence (Q9LQM7 whole entry, the tested form may be a part): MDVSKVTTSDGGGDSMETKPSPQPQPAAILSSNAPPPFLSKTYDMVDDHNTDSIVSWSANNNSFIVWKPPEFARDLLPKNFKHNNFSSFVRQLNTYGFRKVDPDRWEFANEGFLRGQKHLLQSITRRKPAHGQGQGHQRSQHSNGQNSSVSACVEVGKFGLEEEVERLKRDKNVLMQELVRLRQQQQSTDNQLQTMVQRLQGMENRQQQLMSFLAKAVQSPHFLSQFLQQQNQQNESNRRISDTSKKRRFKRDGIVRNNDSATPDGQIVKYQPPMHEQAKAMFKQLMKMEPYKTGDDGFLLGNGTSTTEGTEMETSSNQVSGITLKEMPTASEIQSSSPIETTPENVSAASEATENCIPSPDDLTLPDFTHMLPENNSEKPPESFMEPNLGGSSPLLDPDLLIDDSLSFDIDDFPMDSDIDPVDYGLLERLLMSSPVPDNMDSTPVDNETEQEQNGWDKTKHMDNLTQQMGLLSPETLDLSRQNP
# T5 sequence (Q9LUH8 whole entry, the tested form may be a part): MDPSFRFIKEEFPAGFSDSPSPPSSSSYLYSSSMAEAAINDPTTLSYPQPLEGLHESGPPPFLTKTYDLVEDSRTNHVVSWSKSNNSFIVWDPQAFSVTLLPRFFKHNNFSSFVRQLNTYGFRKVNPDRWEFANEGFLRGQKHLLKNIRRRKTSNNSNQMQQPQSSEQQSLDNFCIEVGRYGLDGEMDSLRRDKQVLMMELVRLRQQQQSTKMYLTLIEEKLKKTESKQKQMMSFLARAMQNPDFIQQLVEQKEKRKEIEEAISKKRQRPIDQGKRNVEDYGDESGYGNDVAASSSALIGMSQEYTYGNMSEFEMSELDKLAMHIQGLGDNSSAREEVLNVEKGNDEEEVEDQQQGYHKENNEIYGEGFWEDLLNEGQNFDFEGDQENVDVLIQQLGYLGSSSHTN
# T3 sequence (Q8GYY1 whole entry E178A, the tested form may be a part): as the sequence (Q8GYY1 whole entry, the tested form may be a part) above, with E178A counted along it
# T2 sequence (Q8GYY1 whole entry K177A, the tested form may be a part): as the sequence (Q8GYY1 whole entry, the tested form may be a part) above, with K177A counted along it
binder,measurement,setting,value
B1,decrease of Y2H interaction relative to WT,[1],62%
same,fold change of Miller units relative to WT,[2],2 fold
same,beta-galactosidase activity (Miller units),HsFC1^WT in pGBKT7 (BD),< 0.5 Miller units
same,beta-galactosidase activity (Miller units),HsFA6b^WT in pGBKT7 (BD),45 Miller units
same,decrease of Y2H interaction relative to WT,[3],61%
same,decrease of Y2H interaction relative to WT,[4],29%
same,decrease of Y2H interaction relative to WT,[5],64%
same,beta-galactosidase activity (Miller units),HsFA3^WT in pGBKT7 (BD),250 Miller units
same,beta-galactosidase activity (Miller units),HsFA1d^WT in pGBKT7 (BD),7 Miller units
same,beta-galactosidase activity (Miller units),HsFA6a^WT in pGBKT7 (BD),< 0.5 Miller units
same,fold increase of Y2H interaction relative to WT,[6],~10 fold
same,beta-galactosidase activity (Miller units),HsFA7a in pGBKT7 (BD),25 Miller units
B2,decrease of Y2H interaction relative to WT,HsFA3^WT in pGBKT7 (BD),56%
B3,increase of Miller units relative to WT,HsFA3^WT in pGBKT7 (BD),27%
B4,decrease of Y2H interaction relative to WT,HsFA3^WT in pGBKT7 (BD),41%
B5,decrease of Y2H interaction relative to WT,HsFA3^WT in pGBKT7 (BD),12%
B6,decrease of Y2H interaction relative to WT,HsFA3^WT in pGBKT7 (BD),51%
